From patent US20210269480A1 (published 2021)
*1 amine or outer side, *2 acyl side, *3 side chain or, on linkers, in order; H or OH if unused. Bridges are numbered along the chain shown (N, C = ends). Primed or numbered codes have the meaning given here. Where no end group is shown, it is not given here. [ ]: non-standard residue; d: D form. TATA = O=C(CC[*:1])N1CN(C(=O)CC[*:2])CN(C(=O)CC[*:3])C1; 1Nal = N[C@@H](Cc1cccc2ccccc12)C(=O)O; PABC = O=C(OCc1ccc(N[*:1])cc1)[*:2]; Glutaryl = O=C(CCCC(=O)[*:2])[*:1]; Cya = N[C@@H](CS(=O)(=O)O)C(=O)O; Hyp = O=C(O)[C@@H]1C[C@@H](O)CN1; dCya = N[C@H](CS(=O)(=O)O)C(=O)O; hArg = N=C(N)NCCCC[C@H](N)C(=O)O; Cit = NC(=O)NCCC[C@H](N)C(=O)O; MMAE = monomethyl auristatin E; PABC′ = p-aminobenzylcarbamate; Agb = N=C(N)NCC[C@H](N)C(=O)O; βAla = NCCC(=O)O; Sar = CNCC(=O)O

T1: Human Nectin-4 (residues Gly32-Ser349) with C-terminal FLAG tag, biotinylated (human, UniProt Q96NY8 32-349, randomly biotinylated with EZ-Link Sulfo-NHS-LC-LC-Biotin)
T1 construct: range 32-349; Captured through biotin on a streptavidin CM5 chip in the SPR assay; also called PVRL4; not shown: C-terminal FLAG tag
T1 sequence (looked up): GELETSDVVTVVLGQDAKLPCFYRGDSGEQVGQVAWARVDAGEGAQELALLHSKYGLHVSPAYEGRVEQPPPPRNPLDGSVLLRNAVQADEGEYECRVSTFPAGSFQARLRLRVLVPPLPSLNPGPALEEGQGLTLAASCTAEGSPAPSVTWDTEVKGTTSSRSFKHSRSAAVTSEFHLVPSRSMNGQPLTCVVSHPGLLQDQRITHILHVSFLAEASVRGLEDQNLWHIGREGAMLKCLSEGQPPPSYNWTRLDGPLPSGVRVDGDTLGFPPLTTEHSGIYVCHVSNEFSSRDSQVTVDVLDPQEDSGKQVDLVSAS

T2: human Nectin-4 (human, UniProt Q96NY8 32-349)
T2 construct: a Gly32-Ser349 FLAG construct is described only under the SPR assay; also called PVRL4
T2 sequence (looked up): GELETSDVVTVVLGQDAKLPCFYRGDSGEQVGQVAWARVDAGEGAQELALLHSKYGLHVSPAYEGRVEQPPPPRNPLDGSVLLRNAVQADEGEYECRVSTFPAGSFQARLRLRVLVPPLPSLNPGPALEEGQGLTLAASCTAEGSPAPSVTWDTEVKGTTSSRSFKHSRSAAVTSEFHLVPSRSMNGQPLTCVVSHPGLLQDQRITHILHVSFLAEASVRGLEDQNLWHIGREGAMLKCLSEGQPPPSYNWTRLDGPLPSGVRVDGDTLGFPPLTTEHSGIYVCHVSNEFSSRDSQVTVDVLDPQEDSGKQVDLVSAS

B1: BCY488 (peptide)
peptide: ACWPLDSYWCARICA
modifications: linker 2-10-14 via TATA; not fully specified
notes: Direct FP used peptides with a fluorescent tag; also called 80-10-00
B2: BCY462 (peptide)
peptide: VDWCAPLDDYWCDRICA
modifications: linker 4-12-16 via TATA; not fully specified
notes: Direct FP used peptides with a fluorescent tag; also called 80-10-12-T01
B3: BCY471 (peptide)
peptide: ACVTTSYDCFLHLLGCA
modifications: linker 2-9-16 via TATA; not fully specified
notes: Direct FP used peptides with a fluorescent tag; also called 80-11-00
B4: BCY472 (peptide)
peptide: ACVTTSYDCWVRLGQCA
modifications: linker 2-9-16 via TATA; not fully specified
notes: Direct FP used peptides with a fluorescent tag; also called 80-11-01
B5: BCY3406 (peptide)
peptide: ACVTTSYDCWVTLGHCSRF
modifications: linker 2-9-16 via TATA; not fully specified
notes: Direct FP used peptides with a fluorescent tag; also called 80-11-08-T01
B6: BCY7683 (peptide)
peptide: {MMAE-PABC-Cit-Val-Glutaryl-βAla}-[Sar][Sar][Sar][Sar][Sar]CPF[dD]CM[hArg]NWSWPIWC
modifications: linker 6-10-20 via TATA
notes: also called MMAE-PABC-Cit-Val-Glutaryl-BCY7556
B7: BCY8253 (peptide)
peptide: {MMAE-PABC′-Cit-Val-Glutaryl-βAla}-[Sar][Sar][Sar][Sar][Sar][Sar][Sar][Sar][Sar][Sar]CP[1Nal][dR]CL[hArg]HWSTP[Hyp]WC
modifications: linker 11-15-25 via TATA
notes: also called MMAE-PABC-Cit-Val-Glutaryl-BCY8231
B8: BCY8254 (peptide)
peptide: {MMAE-PABC′-Cit-Val-Glutaryl-βAla}-[Sar][Sar][Sar][Sar][Sar][Sar][Sar][Sar][Sar][Sar]CP[1Nal][dR]CM[hArg]NWSTP[Hyp]WC
modifications: linker 11-15-25 via TATA
notes: also called MMAE-PABC-Cit-Val-Glutaryl-BCY8232
B9: BCY7825 (peptide)
peptide: {MMAE-PABC′-Cit-Val-Glutaryl-βAla}-[Sar][Sar][Sar][Sar][Sar][Sar][Sar][Sar][Sar][Sar]CPF[dD]CM[hArg]NWSTPIWC
modifications: linker 11-15-25 via TATA
notes: also called MMAE-PABC-Cit-Val-Glutaryl-BCY7814
B10: BCY8245 (peptide)
peptide: {MMAE-PABC-Cit-Val-Glutaryl-βAla}-[Sar][Sar][Sar][Sar][Sar][Sar][Sar][Sar][Sar][Sar]CP[1Nal][dD]CM[hArg]DWSTP[Hyp]WC
modifications: linker 11-15-25 via TATA
notes: also called BT8009; MMAE-PABC-Cit-Val-Glutaryl-BCY8234
B11: BCY8255 (peptide)
peptide: {MMAE-PABC′-Cit-Val-Glutaryl-βAla}-[Sar][Sar][Sar][Sar][Sar][Sar][Sar][Sar][Sar][Sar]CP[1Nal][dR]CM[hArg]DWSTP[Hyp]WC
modifications: linker 11-15-25 via TATA
notes: also called MMAE-PABC-Cit-Val-Glutaryl-BCY8235

biological target: T1, Human Nectin-4 (residues Gly32-Ser349) …; assay: SPR (Biacore), biotinylated human Nectin-4 on streptavidin chip
Procedure: Biacore experiments were performed to determine kₐ (M⁻¹s⁻¹), kd (s⁻¹), KD (nM) values of monomeric peptides binding to human Necin-4 protein (obtained from Charles River).
For analysis of peptide binding, a Biacore 3000 instrument was used utilising a CM5 chip (GE Healthcare). Streptavidin was immobilized on the chip using standard amine-coupling chemistry at 25° C. with HBS-N (10 mM HEPES, 0.15 M NaCl, pH 7.4) as the running buffer. Briefly, the carboxymethyl dextran surface was activated with a 7 minute injection of a 1:1 ratio of 0.4 M 1-ethyl-3-(3-dimethylaminopropyl) carbodiimide hydrochloride (EDC)/0.1 M N-hydroxy succinimide (NHS) at a flow rate of 10 μl/min. For capture of streptavidin, the protein was diluted to 0.2 mg/ml in 10 mM sodium acetate (pH 4.5) and captured by injecting 120 μl of streptavidin onto the activated chip surface. Residual activated groups were blocked with a 7 minute injection of 1 M ethanolamine (pH 8.5) and biotinylated Nectin-4 captured to a level of 1,200-1,800 RU. Buffer was changed to PBS/0.05% Tween 20 and a dilution series of the peptides was prepared in this buffer with a final DMSO concentration of 0.5%. The top peptide concentration was 100 nM with 6 further 2-fold dilutions. The SPR analysis was run at 25° C. at a flow rate of 50 μl/min with 60 seconds association and dissociation between 400 and 1,200 seconds depending upon the individual peptide. Data were corrected for DMSO excluded volume effects. All data were double-referenced for blank injections and reference surface using standard processing procedures and data processing and kinetic fitting were performed using Scrubber software, version 2.0c (BioLogic Software). Data were fitted using simple 1:1 binding model allowing for mass transport effects where appropriate.

Question: Ac-CP[1Nal][dR]CM[hArg]NWSTP[Hyp]WC (linker 1-5-15 via TATA, Bicyclic peptide cyclised with TATA) [BCY8128] was tested. Which Kd did it give?
Answer: 1.06 nM

Question: With Ac-CP[1Nal][dR]CM[hArg]HWSTP[Hyp]WC (linker 1-5-15 via TATA, Bicyclic peptide cyclised with TATA) [BCY8129] as the binder, how does the Kd read?
Answer: 0.87 nM

Question: With Ac-CP[1Nal][dD]CL[hArg]DWSTP[Hyp]WC (linker 1-5-15 via TATA, Bicyclic peptide cyclised with TATA) [BCY8212] as the binder, how does the Kd read?
Answer: 2.42 nM

Question: With Ac-CP[1Nal][dR]CL[hArg]DWSTP[Hyp]WC (linker 1-5-15 via TATA, Bicyclic peptide cyclised with TATA) [BCY8213] as the binder, how does the Kd read?
Answer: 1.95 nM

Question: For Ac-CP[1Nal][dR]CL[hArg]HWSTP[Hyp]WC (linker 1-5-15 via TATA, Bicyclic peptide cyclised with TATA) [BCY8214], which Kd is on record?
Answer: 0.54 nM

Question: Ac-CP[1Nal][dD]CM[hArg]DWSTPIWC (linker 1-5-15 via TATA, Bicyclic peptide cyclised with TATA) [BCY8127] was tested. Which Kd did it give?
Answer: 1.84 nM

Question: For Ac-CP[1Nal][dCya]CM[hArg]DWSTP[Hyp]WC (linker 1-5-15 via TATA, Bicyclic peptide cyclised with TATA) [BCY8163], which Kd is on record?
Answer: 0.61 nM

Question: How did the Kd turn out when Ac-CP[1Nal][dD]CMPDWSTP[Hyp]WC (linker 1-5-15 via TATA, Bicyclic peptide cyclised with TATA) [BCY8182] was run?
Answer: 0.96 nM

Question: [βAla][Sar][Sar][Sar][Sar][Sar][Sar][Sar][Sar][Sar][Sar]CP[1Nal][dD]CMKDWSTP[Hyp]WC (linker 12-16-26 via TATA, Bicyclic peptide cyclised with TATA) [BCY8238] was tested. Which Kd did it give?
Answer: 3.88 nM

Question: Which Kd does the source give for Ac-CP[1Nal][dR]CM[hArg]DWSTP[Hyp]WC (linker 1-5-15 via TATA, Bicyclic peptide cyclised with TATA) [BCY8184] here?
Answer: 0.56 nM

Question: Ac-CP[1Nal][dR]CM[Agb]DWSTP[Hyp]WC (linker 1-5-15 via TATA, Bicyclic peptide cyclised with TATA) [BCY8192] was tested. Which Kd did it give?
Answer: 1.81 nM

Question: With Ac-CP[1Nal][dR]CMPDWSTP[Hyp]WC (linker 1-5-15 via TATA, Bicyclic peptide cyclised with TATA) [BCY8193] as the binder, how does the Kd read?
Answer: 1.3 nM

Question: Which Kd does the source give for Ac-CP[1Nal][dR]CM[Hyp]DWSTP[Hyp]WC (linker 1-5-15 via TATA, Bicyclic peptide cyclised with TATA) [BCY8194] here?
Answer: 1.9 nM

Question: Ac-CP[1Nal][dR]CM[hArg]DWSTPIWC (linker 1-5-15 via TATA, Bicyclic peptide cyclised with TATA) [BCY8215] was tested. Which Kd did it give?
Answer: 1.62 nM

Question: With {Ac-βAla}-[Sar][Sar][Sar][Sar][Sar][Sar][Sar][Sar][Sar][Sar]CP[1Nal][dCya]CM[hArg]DWSTP[Hyp]WC (linker 11-15-25 via TATA, Bicyclic peptide cyclised with TATA) [BCY8276] as the binder, how does the Kd read?
Answer: 0.86 nM

Question: How did the Kd turn out when {Ac-βAla}-[Sar][Sar][Sar][Sar][Sar][Sar][Sar][Sar][Sar][Sar]CP[1Nal][dD]CM[Cya]DWSTP[Hyp]WC (linker 11-15-25 via TATA, Bicyclic peptide cyclised with TATA) [BCY8277] was run?
Answer: 5.99 nM

Question: How did the Kd turn out when {Ac-βAla}-[Sar][Sar][Sar][Sar][Sar][Sar][Sar][Sar][Sar][Sar]CP[1Nal][dCya]CM[Cya]DWSTP[Hyp]WC (linker 11-15-25 via TATA, Bicyclic peptide cyclised with TATA) [BCY8279] was run?
Answer: 3.31 nM

biological target: T2, human Nectin-4; assay: FP competition, tracer SEQ ID NO 217
Procedure: Peptides were diluted to an appropriate concentration in assay buffer as described in the direct binding assay with a maximum of 5% DMSO, then serially diluted 1 in 2. […] Measurements were conducted as for the direct binding assay, however the gain was determined prior to the first measurement. Data analysis was in Systat Sigmaplot version 12.0 where the mP values were fit to a user defined cubic equation to generate a Ki value: […]

Question: With QKWCAPLSDYWCNRICA (linker 4-12-16 via TATA; not fully specified, also called 80-10-13-T01) [BCY3400] as the binder, how does the Ki read?
Answer: 47 nM

biological target: T2, human Nectin-4; assay: FP direct binding, fluorescent peptide
Procedure: Affinity of the peptides of the invention for human Nectin-4 (Ki) was determined using a fluorescence polarisation assay, in accordance with the methods disclosed in WO 2016/067035. […] Measurements were conducted on a BMG PHERAstar FS equipped with an “FP 485 520 520” optic module which excites at 485 nm and detects parallel and perpendicular emission at 520 nm. The PHERAstar FS was set at 25° C. with 200 flashes per well and a positioning delay of 0.1 second, with each well measured at 5 to 10 minute intervals for 60 minutes. […] Data was analysed using Systat Sigmaplot version 12.0. mP values were fit to a user defined quadratic equation to generate a Kd value: f=ymin+(ymax−ymin)/Lig*((x+Lig+Kd)/2-sqrt((((x+Lig+Kd)/2)\hat{ }2)-(Lig*x))).

Question: For carboxyfluorescein-CPF[dD]CM[hArg]NWSTPIWC (linker 1-5-15 via TATA) [BCY8208], which Ki is on record?
Answer: 745 nM

Question: For ACPFGCMKNWSWPIWCA (linker 2-6-16 via TATA; not fully specified (N-terminus), also called FI-A-(SQ ID NO: 1)-A) [80-09-02-N006], which Ki is on record?
Answer: 5 nM

Question: With QKWCAPLSDYWCNRICA (linker 4-12-16 via TATA; not fully specified, also called 80-10-13-T01) [BCY3400] as the binder, how does the Ki read?
Answer: 72 nM

Question: B1 was tested. Which Ki did it give?
Answer: 208 nM

Question: For B2, which Ki is on record?
Answer: 269 nM

Question: Which Ki does the source give for B3 here?
Answer: 888 nM

Question: For B4, which Ki is on record?
Answer: 502 nM

Question: For B5, which Ki is on record?
Answer: 30 nM

biological target: T1, Human Nectin-4 (residues Gly32-Ser349) …; assay: SPR (Biacore), biotinylated human Nectin-4 on streptavidin chip; remark: another data set of the same source

Question: Which Kd does the source give for B6 here?
Answer: 27.1 nM

Question: Which Kd does the source give for B7 here?
Answer: 6.22 nM

Question: Which Kd does the source give for B8 here?
Answer: 4.11 nM

Question: B9 was tested. Which Kd did it give?
Answer: 11.6 nM

Question: For B10, which Kd is on record?
Answer: 5.12 nM

Question: For B11, which Kd is on record?
Answer: 8.58 nM
